4 compounds from paper PMC7496416 (Molecular microbiology, 2020) can be followed below.

Data set [1] concerns the target T1, NasR (His10-MBP-NasR) (Klebsiella oxytoca, UniProt Q48468).
T1 sequence (Q48468 1-396): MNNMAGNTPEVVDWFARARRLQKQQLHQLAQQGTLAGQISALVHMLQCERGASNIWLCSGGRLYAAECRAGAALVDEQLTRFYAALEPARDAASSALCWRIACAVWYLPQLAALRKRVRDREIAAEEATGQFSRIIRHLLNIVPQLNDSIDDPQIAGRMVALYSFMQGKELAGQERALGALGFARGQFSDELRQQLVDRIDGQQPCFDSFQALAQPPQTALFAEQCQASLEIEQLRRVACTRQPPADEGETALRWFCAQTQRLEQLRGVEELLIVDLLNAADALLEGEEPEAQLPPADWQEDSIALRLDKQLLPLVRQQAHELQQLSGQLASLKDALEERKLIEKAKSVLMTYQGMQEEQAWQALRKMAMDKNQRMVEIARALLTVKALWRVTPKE
Nature of the data set: fluorescence anisotropy of Cy3-labelled P1P2 nasF leader RNA, ion titration. Type of data set: biochemical. To be noted: 8 uM protein; 50 mM HEPES pH 7.5, 100 mM KCl, 1 mM MgCl2; allosteric activator, NIT domain. On the technique in general: Polarisation of emitted light reports the rotation of a fluorescent probe.

Data set [2] relates to NasR R340K (Klebsiella oxytoca). Put plainly: fluorescence anisotropy. To be noted: 50 mM HEPES pH 7.5, 100 mM KCl, 1 mM MgCl2, with or without 1 mM KNO3; 50 nM Cy3-RNA final; 30 min in the dark, temperature not stated; Hill fit.
The test system of data set [3] is NasR wild type (Klebsiella oxytoca). Nature of the data set: fluorescence anisotropy. To be noted: 50 mM HEPES pH 7.5, 100 mM KCl, 1 mM MgCl2, with or without 1 mM KNO3; 50 nM Cy3-RNA final; 30 min in the dark, temperature not stated; Hill fit.
In data set [4] the test system is NasR K347R (Klebsiella oxytoca). Nature of the data set: fluorescence anisotropy. To be noted: 50 mM HEPES pH 7.5, 100 mM KCl, 1 mM MgCl2, with or without 1 mM KNO3; 50 nM Cy3-RNA final; 30 min in the dark, temperature not stated; Hill fit.

Take `O=[N+]([O-])O` [nitrate]: the “activation of RNA binding (Hill fit)” value in data set [1] is reported as “RNA binding activity was only observed in conditions containing nitrate or nitrite”. Same read-out and setting: to `O=NO` [nitrite] belongs “RNA binding activity was only observed in conditions containing nitrate or nitrite”. P1P2 two-hairpin RNA: the binding signal (fold weaker than wild type) in data set [2] and in data set [4] was 10 in each case. For the same compound, the Kd (as a rule, a measure of binding affinity in units of concentration) in data set [3] was 1 µM. With P2 single-hairpin RNA, the dissociation constant (Kd) in data set [3] came to 12 µM.
